Assay [1] deals with T1, human Fas receptor (FasR) on the surface of HUVEC cells (human, UniProt P25445 26-335).
T1 construct: whole, on cells; also called hTNFRSM6; hTNFR6
T1 sequence (looked up): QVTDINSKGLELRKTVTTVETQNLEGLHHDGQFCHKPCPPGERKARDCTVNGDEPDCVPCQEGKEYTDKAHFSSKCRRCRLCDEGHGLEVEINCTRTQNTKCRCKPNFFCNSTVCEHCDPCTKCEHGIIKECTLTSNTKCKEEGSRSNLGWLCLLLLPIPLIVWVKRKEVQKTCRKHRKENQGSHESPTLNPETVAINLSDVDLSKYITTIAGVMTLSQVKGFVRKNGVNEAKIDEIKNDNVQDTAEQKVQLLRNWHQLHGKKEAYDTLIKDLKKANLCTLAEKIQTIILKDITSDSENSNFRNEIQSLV
Briefly: flow cytometry on mitomycin C-treated senescent HUVEC cells, antibody at 40 µg/ml. A general note: Flow cytometry measures light scatter and fluorescence of single cells or particles in a stream.

In assay [2] the target is PrP rigid loop peptide … (DSE3) (human).

B1: antibody AMF-3a-118 (misfolded FasR antibody) (antibody, V domains shown)
VH: QSVEESGGRLVTPGTPLTLTCKASGFSLSDSRVSWVRQAPGKGLEWIGIVGIGWNIYHANWAKGRFTISKTSSTTVDLKITSPTVEDTATYFCARGLGGGTVIWGPGTLVTVSL
VL: AQVLTQTPASVSAAVGGTVTISCQSSESVYKNNYLSWFQQKPGQPPKLLIYEASKLASGVSTRFKGSGSGTQFTLTISGVQCDDAATYYCLGEFSCYSGDCGTFGGGTAVVVKG
For B1, in assay [1], the binding result is given as “binds”.

B2: antibody c-120 (misfolded PrP rigid loop antibody) (antibody)
heavy: QSVEESGGHLVTPGTPLTLTCTVSGIDLSTYAMGWVRQAPGKGLEWIGVITKSGNTYYASWAKGRFAISKTSTTVDLKITSPTTEDTATYFCGRYGIGVSYYDIWGPGTLVTVSSGQPKAPSVFPLAPCCGDTPSSTVTLGCLVKGYLPEPVTVTWNSGTLTNGVRTFPSVRQSSGLYSLSSVVSVTSSSQPVTCNVAHPATNTKVDKTVAPSTCSKPTCPPPELLGGPSVFIFPPKPKDTLMISRTPEVTCVVVDVSQDDPEVQFTWYINNEQVRTARPPLREQQFNSTIRVVSTLPIAHQDWLRGKEFKCKVHNKALPAPIEKTISKARGQPLEPKVYTMGPPREELSSRSVSLTCMINGFYPSDISVEWEKNGKAEDNYKTTPAVLDSDGSYFLYSKLSVPTSEWQRGDVFTCSVMHEALHNHYTQKSISRSPGK
light: AQVLTQTPSPVSAAVGGTVTINCQSSQSLYNKNWLSWYQKKPGQPPKLLIYKASTLESGVSSRFKGSGSGTQFTLTISGVQCDDAATYYCQGEFSCSSADCTAFGGGTEVVVKGDPVAPTVLIFPPAADQVATGTVTIVCVANKYFPDVTVTWEVDGTTQTTGIENSKTPQNSADCTYNLSSTLTLTSTQYNSHKEYTCKVTQGTTSVVQSFNRGDC
In general, Kd refers to the concentration at which binding is half-saturated. High values mean a looser complex, low ones a tighter complex. Regarding B2, the Kd in assay [2] came out at 0.1 nM.

Values taken from patent publication US20160115237A1 (UNIVERSITY OF BRITISH COLUMBIA, published 2016).
